Reference: a protein production outcome set (Wang et al. 2014)
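Also: failed if final PepcDB status was selected cloned or expressed and not failed if soluble or beyond.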

Experiment: label from the status in PepcDB records
In the case of “NIVEWLGDRSLAVLAAIANKFRGSEQETLEPQLDEFVEDKVSTKHVEDDQQDDETLPHLTAYEVEEPKEKAAVHEYPIYMPQAKSETSAVKPTPEPQPQRVAAVNATPTYVEPEPQLKAVSTDNVDPMVERTKQLNVTIEELEAAAQQADDWASEEQTSQSYADTNAVYQEQVQAKHEEVVEHDTPQLESSYAEYAQFAAQQEQQLHVEPTPHEEPVIDTRALDDITDHAEPSEHIEPTISDFDVVDEEETYVAPQPQSRSPEPQPMVQPQSVSQIQPEQAPEPSVAFEPAPQEVEVEEVQDGDQDVAAFQSMVSSAQAKVAATQNPFLMKQEQNLPVPEEPLPTLELLYHPEKRENFIDREALEQVARLVESKLADYKIKADVVGIYPGPVITRFELDLAPGVKVSRISGLSMDLARALSAMAVRVVEVIPGKPYVGLELPNMSRQTVYLSDVISSPQFEQAKSPTTVVLGQDIAGEAVIADIAKMPHVLVAGTTGSGKSVGVNVMILSMLYKASPEDLRFIMIDPKMLELSIYEGIPHLLAEVVTDMKDASNALRWCVGEMERRYKLMSALGVRNVKGFNEKLKMAAEAGHPIHDPFWQEGDSMDTEPPLLEKLPYIVVVVDEFADLMMVVGKKVEELIARLAQKARAAGIHLILATQRPSVDVITGLIKANIPTRVAFTVSTKTDSRTILDQGGAESLLGMGDMLYLPPGSSHTIRVHGAFASDDDVHAVVNNWKARGKPNYIDEIISGDQGPESLLPGEQMESDEEMDPLFDQVVEHVVQSRRGSVSGVQRRFKIGYNRAARIVEQLEAQGIVSAPGHNGNREVLAPAPPKD”, the protein production is reported as “failed”. With “NLKDVYVSIADYEGDEETAGFQEGVSMEVLERNPNGWWYCQILDGVKPFKGWVPSNYLEKKN” the protein production was “not failed”. For “NPVILADLDDTLFQTRRKMVDELALAPYKTGALDRSLAPRSFMTQEQAMLVDWMLEHADLIPVTARGTEEMSRVTIPFHSWAITTHGAVVLTPEKVADEQWQHHITQSLTPYKQPLLRLQQSITQLMAERNIDGWARINYEYDDLPIYLVMKHNDSARLDELYAIGDEIEKIFSTKGFYIHRNSNNIAWLPEPIEKGKAVTYLLNKLKAERGVFPVIGFGDSLSDHRFMKLCN”, the protein production was “not failed”. In the case of “NQLLGMHQIEKEMTQYFGIQRCIVVAGDSDIQKKVLSDFGDVLTNTLNLLLPNGENTIAVMGGTTMAMVAENMGSLETEKRHNLFVPARGGIGEAVSVQANSISAVMANKTGGNYRALYVPEQLSRETYNSLLQEPSIQEVLTLISHANCVVHSIGRALHMAARRKMSDDEMVMLKQKNAVAESFGYFFDEEGKVVYKIPRIGLQLKNLQEIPYVVAIAGGKTKAKAIRAYMKNAPKQTWLITDEAAANEILK”, the protein production is reported as “not failed”. For “NQLLTQQANEDGLTKLFNRRYIDQKLDSMVAWHGRHHMPMAMILLDVDFFKPFNDNYGHIEGDRCLQAIANQLKATFCRSGEYVGRYGGEEFVVLLSSTDAQTAEREAERIQEAMYFLDYQHEFSSVANRVTVSQGVFVFQPTGKENQADLYATADRALYTSKSLGRNTYTMVNAS”, the protein production was “not failed”. In the case of “NRDSLFNDPNAPVLGNPEGDVTVVEFFDYNCPYCRRAMAEVQGLVDADPNVRLVYREWPILGEGSDFAARAALAARQQGKYEAFHWALMGMSGKANETGVLRIAREVGLDTEQLQRDMEAPEVTAHIAQSMALAQKLGFNGTPSFVVEDALVPGFVEQSQLQDAVDRARKAA”, the protein production is reported as “not failed”. In the case of “NRLPDAVVTVYPTFNSLQMLAHALRMPYHDMRIVSLTGRPWHEFDRALIERAEKIGILTDHEHTPSAIAMRMLDYGYEDYTMSVGTRMGNPQEQCLDTFSLREAADRDFERPNCVILSATRPFVCSRAPLGLSESAFMPLNGRTKMITKMPFRLVSLSCLELHRASSFWDIGFCTGSVSIEAKLNFPHLHITAFEIRPEGAELMPVNSRRFGAPGIAYRIGDFMEEDISSLAPPDAVFIGGHGGRLVEMIAKVHSVMTKGGLLVFNSVSEESRHLFLTGIEACGMELLSSIRLTADGNNPIDILQARKKE”, the protein production is reported as “not failed”. For “NSGKRLIQRSIERALDFRKEVQRLREESDGWFFDIWQPEAVDKAECWPVAPGEDWHGFKDADADHMYLDPVKVTILTPGMDEQGNMDEEGIPAALVAKFLDERGVVVEKTGPYNLLFLFSIGIDKTRAMGLLRGLTEFKRAYDLNLRVKNMLPDLYAEDPDFYRNMRIQDLAQGIHRLIRQHQ”, the protein production was “failed”. For “NTLRELRLFLRDVTKRLATDKRFNIFSKPVSDYLEVIKEPMDLSTVITKIDKHNYLTAKDFLKDIDLICSNALEYNPDKDPGDKIIRHRACTLKDTAHAIIAAELDPEFNKLCEEIKE”, the protein production was “not failed”. With “PATCPIVPGQEMIIEISKGRSGLGLSIVGGKDTPLNAIVIHEVYEEGAAARDGRLWAGDQILEVNGVDLRNSSHEEAITALRQTPQKVRLVVYRDEAHYRDEE” the protein production was “not failed”. In the case of “PCYDNTFANTCAECQQLIGHDSRELFYEDRHFHEGCFRCCRCQRSLADEPFTCQDSELLCNDCYCSAFS”, the protein production is reported as “not failed”. For “PDQCKPPQVTCRSATCAQVNWEVPLSNGTDVTEYRLEWGGVEGSMQICYCGPGLSYEIKGLSPATTYYCRVQALSVVGAGPFSEVVACVTPPS”, the protein production was “not failed”. In the case of “PEAMLIVDQNGQIVFSNSRCQQLFGYDAKAMLALQIETLLPEELRHLHTGERLDFLREGRDRPMASARHVRALKSDGGEFVAEIALSILPSDFD”, the protein production is reported as “failed”. With “PEQLRSTVRIGTIDSIVQAWLPRFIERVRELYPGLTLDLNVDTSRGIAREIVERKIDLALLMGPVLEAGLRNVDLGSMDCAWVAAPGFGLGGRRIGLADLVDLPILTFSRNSDPHVWLMRQFEELRLPQPAISNSNSLSAML” the protein production was “failed”. In the case of “PFMDQSGGGVTFCGGEPLLHPEFLIDILKRCGQQGIHRAVDTTLLARKETVDEVMRNCELLLIDLKSMDSTVHQTFCDVPNELILKNIRRVAEADFPYYIRIPLIEGVNADEKNIKLSAEFLASLPRHPEIINLLPYHDIGKGKHAKLGSIYNPKGYKMQTPSEEVQQQCIQILTDYGLKATIGG”, the protein production is reported as “not failed”. In the case of “PGRPTMMISTTAMNTALLQWHPPKELPGELLGYRLQYCRADEARPNTIDFGKDDQHFTVTGLHKGTTYIFRLAAKNRAGLGEEFEKEIRTPEDL”, the protein production is reported as “not failed”. For “PHRAVVNFLLSMTNQPGINAGDRLLAVTSISFDISVLELFLPLISGASLVLADSEAAADGQALIKLAMHQDVTFIQATPSNYWLMLEAGWPSTLKLKVLCGGEALPPVLAQKLLQRSDSVWNMYGPTETTIWSAISRVTGSASTLGRP”, the protein production was “failed”. For “PIIFVPGIMGSRLKFAKGKKQGTRAWDPDSSGFMFLNYGRFDVSAKKKKALLVGPEFDPDYLEVDTNNPKLDKSFLRRYPRADKRGWGGVMWGSYGPILRALHDHQWEEPVGHCFEFPVHAFGYNWTASNMEAGRKLKEYIGATIDHYAKGLRDEAGRPLERLCTRVILVTHSMGGLVARSACVLHGAAEKVLGVVHGVQPATGSPAAYWRMK”, the protein production was “failed”. In the case of “PISRLAQIQQARKEKEPDYILLSERGMPRRREFVMQVKVGNEVATGTGPNKKIAKKNAAEAMLLQLGYKASTSLQD”, the protein production is reported as “not failed”. For “PKKPGTGKHIVYFPGANTYYQACFRDISTACKETGATVHAFNFPGTGLSSGKVREANDLINAGISVVSSLIKQGVHPDDIILQGDCYGASIALEVKKQLEDQ”, the protein production was “failed”. In the case of “PKPLKNLDGQFCEICGDQIGLTVEGDLFVACNECGFPACRPCYEYERREGTQNCPQCKTRYKRLRGSPRVEGDEDEEDID”, the protein production is reported as “not failed”. With “PKSQACEPSEPEIEIKLPKLRTLDVFSGCGGLSEGFHQAGISDTLWAIEMWDPAAQAFRLNNPGSTVFTEDCNILLKLVMAGETTNSRGQRLPQKGDVEMLCGGPPCQGFSGMNRFNSRTYSKFKNSLVVSFLSYCDYYRPRFFLLENVRNFVSFKRSMVLKLTLRCLVRMGYQCTFGVLQAGQYGVAQTRRRAIILAAAPGEKLPLFPEPLHVFAPRACQLSVVVDDKKFVSNITRLSSGPFRTITVRDTMSDLPEVRNGASALEISYNGEPQSWFQRQLRGAQYQPILRDHICKDMSALVAARMRHIPLAPGSDWRDLPNIEVRLSDGTMARKLRYTHHDRKNGRSSSGALRGVCSCVEAGKACDPAARQFNTLIPWCLPHTGNRHNHWAGLYGRLEWDGFFSTTVTNPEPMGKQGRVLHPEQHRVVSVRECARSQGFPDTYRLFGNILDKHRQVGNAVPPPLAKAIGLEIKLCML” the protein production was “failed”.
